According to publication PMC3098940 (ACS chemical biology, 2011):

Target: the molecule itself
Experiment: SEC

B1: phosphorylated Stat3β (residues 127-722), wildtype (domain or fragment, murine, UniProt P42227-2 127-722, looked up)
chain: GQANHPTAAVVTEKQQMLEQHLQDVRKRVQDLEQKMKVVENLQDDFDFNYKTLKSQGDMQDLNGNNQSVTRQKMQQLEQMLTALDQMRRSIVSELAGLLSAMEYVQKTLTDEELADWKRRQQIACIGGPPNICLDRLENWITSLAESQLQTRQQIKKLEELQQKVSYKGDPIVQHRPMLEERIVELFRNLMKSAFVVERQPCMPMHPDRPLVIKTGVQFTTKVRLLVKFPELNYQLKIKVCIDKDSGDVAALRGSRKFNILGTNTKVMNMEESNNGSLSAEFKHLTLREQRCGNGGRANCDASLIVTEELHLITFETEVYHQGLKIDLETHSLPVVVISNICQMPNAWASILWYNMLTNNPKNVNFFTKPPIGTWDQVAEVLSWQFSSTTKRGLSIEQLTTLAEKLLGPGVNYSGCQITWAKFCKENMAGKGFSFWVWLDNIIDLVKKYILALWNEGYIMGFISKERERAILSTKPPGTFLLRFSESSKEGGVTFTWVEKDISGKTQIQSVEPYTKQQLNNMSFAEIIMGYKIMDATNILVSPLVYLYPDIPKEEAFGKYCRPESQEHPEADPGSAAPYLKTKFICVTPFIDAVWK
modifications: phosphotyrosine at 705
- stoichiometry N: 2
